The record followed here is article PMC12616241 (2025).

For orientation: Kd means the constant that tells how readily two partners part at equilibrium.

Assay in all cases: SPR
For orientation: In SPR one partner is held on a chip, and binding of the other changes the refractive index at the surface.

Experiment [1] has as its target FcγRIIIa-F158 (His-tagged recombinant) (human, UniProt P08637 17-208).
Experiment [2] concerns the target FcγRIIIa-V158 (His-tagged recombinant) (human).
The target in experiment [3] is FcγRIIa-R131.
Experiment [4] concerns the target FcγRIIa-H131.

FcγRIIIa-V158 (His-tagged recombinant) (human), sequence (chain, as listed by the source): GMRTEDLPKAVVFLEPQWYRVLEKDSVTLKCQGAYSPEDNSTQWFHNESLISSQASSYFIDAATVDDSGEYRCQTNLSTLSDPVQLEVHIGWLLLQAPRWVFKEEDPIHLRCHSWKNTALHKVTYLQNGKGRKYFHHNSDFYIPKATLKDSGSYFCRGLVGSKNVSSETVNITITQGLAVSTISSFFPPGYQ
FcγRIIIa-F158 (His-tagged recombinant), sequence (P08637 17-208): as the sequence (chain, as listed by the source) above, with V160F counted along it

B1: margetuximab (antibody)
chain 1: QVQLQQSGPELVKPGASLKLSCTASGFNIKDTYIHWVKQRPEQGLEWIGRIYPTNGYTRYDPKFQDKATITADTSSNTAYLQVSRLTSEDTAVYYCSRWGGDGFYAMDYWGQGASVTVSS
chain 2: DIVMTQSHKFMSTSVGDRVSITCKASQDVNTAVAWYQQKPGHSPKLLIYSASFRYTGVPDRFTGSRSGTDFTFTISSVQAEDLAVYYCQQHYTTPPTFGGGTKVEIK
On to B1, for which the Kd in experiment [1] came out at 113 nM; in experiment [2] it was 91.7 nM; in experiment [3], 1440 nM; in experiment [4] it was 764 nM.
